The values that follow come from the supplement of paper PMC9170038.

This series relates to MS2 coat protein. The series can be described thus: apparent KD of MS2 coat protein; designed switch direction (-1 OFF switch, 1 ON switch): -1; higher = weaker reporter binding. The procedure, abridged:
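Designed RNA switches were transcribed on Illumina chips by stalled E. coli RNA polymerase and titrated with SNAP-549-labelled MS2 coat protein from 0.7 or 1.5 nM, doubling to 3 µM. Step length ran from 0.8–1.5 h at the lowest concentration to 10–20 min at the highest. The apparent KD is the median over clusters for each design, from curve-fitted normalised cluster fluorescence.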

The mark [1] stands for this setting: Eterna round: R95, input ligand: microRNA oligo, concentration not stated.
Setting [2] is: Eterna round: R95, input ligand: FMN 200 uM.
The mark [3] stands for this setting: Eterna round: R95, input ligand: none.
The mark [4] stands for this setting: input ligand: microRNA oligo, concentration not stated.

For “CUUUUGUGAGGAUAUUAGUAGUAAUUAAAUAAAAUUACUACUGAGAAGGCACAUGAGGAUCACCCAUGUUCCUC [salish99_ex4_r3_053] (puzzle: Exclusion 4)”, under setting [1], the “apparent KD of MS2 coat protein” value worked out at 35.9 nM.
On to “ACGCCAGGAGGAUAUGCAAUAAGUAACAUGAGGAUCACCCAUGUUCGGGCGAUGCUCGUGGCAGAAGGCCUAGCCG [Edteonra] (Eterna round: R97, puzzle: Exclusion 5)”, for which the “apparent KD of MS2 coat protein” value (input ligand: FMN 200 uM) turned out to be 329 nM and the “apparent KD of MS2 coat protein” value (input ligand: none) was 36.1 nM.
In the case of “GCGAGCAGACGGAGAUCCAACAUGAGGAUCACCCAUGUCUCGCAAGCUUUUUGCUUGUCUUAUCCUCCUCUGUUUAG [Design #8] (Eterna round: R97, puzzle: Sensor, turn-off variant 1)”, the “apparent KD of MS2 coat protein” value runs as follows: (input ligand: FMN 200 uM) 81.3 nM; (input ligand: none) 80.4 nM.
As to “CUAGAUCUUCGGAUCUAGUACAUGAGGAUCACCCAUGUGACGAGUUACAUGAAAAACAAGCUUUUUGCUCGUCUUAU [Sensor v3 - Turn-off variant 1 - 8] (puzzle: Sensor v3, turn-off variant 1)”, the “apparent KD of MS2 coat protein” value came out at 41.6 nM under setting [2], 102 nM under setting [1] and 46.6 nM under setting [3].
With “UGAGUGCUGCGAGGAUAUACAUGAGGAUCACCCAUGUUAUCGUGUGAGGCUUUGCCUCACACGAAGUAGAAGGCGCAGUACUCU [JL ENG2 1.11] (Eterna round: R96, puzzle: Exclusion NG 2)”, the “apparent KD of MS2 coat protein” value is 9.84 nM (input ligand: FMN 200 uM), 10.2 nM under setting [4] and 14.2 nM (input ligand: none).
In the case of “GAAGAAGAGAGAAAAGAAAACAUGAGGAUCACCCAUGUGAGAAGAUGAGGGUGAUACAGGCUAUAUGCUCGUCUUAU (puzzle: Sensor v3, turn-off variant 1)”, the “apparent KD of MS2 coat protein” value runs as follows: under setting [2], 247 nM; under setting [1], 28.8 nM; under setting [3], 295 nM.
Regarding “AUGGUACAUGAGGAUCACCCAUGUUAGGAUAUCGCGUGACCUAAAACUAAGAGACACACGAGAAGGGACGACAU (puzzle: Exclusion 1)”, under setting [1], the “apparent KD of MS2 coat protein” value was 77.3 nM.
With “UAGUUACAUGAGGAUCACCCAUGUGAGGAUAUGAGUCAGUCACGGUGACGUGGCUGACUCAGAAGGCACAAAGG [Mat - Exclusion 1 - JL Mod - D38] (Eterna round: R97, puzzle: Exclusion 1)”, the “apparent KD of MS2 coat protein” value reads like this: (input ligand: FMN 200 uM) 430 nM; (input ligand: none) 126 nM.
As to “ACAAGCUUUUUGUUCGUCUUAUAAAAUCCUAAGAGGAUAACAUGAGGAUCACCCAUGUAACAAAGACGGACUCAUGU [Sesor Array 13 - Jieux - Sensor v3, turn-off variant 2] (puzzle: Sensor v3, turn-off variant 2)”, the “apparent KD of MS2 coat protein” value was 11.7 nM under setting [2], 120 nM under setting [1] and 9.57 nM under setting [3].
In the case of “ACUUAUAGAGGAUAUACAGAUUAUUACAUGAGGAUCACCCAUGUUCUUCAAUGUAUAUAUGUAGAAGGCUAAGGAU [Mat - Exclusion 5 - JL Mod - D8] (Eterna round: R97, puzzle: Exclusion 5)”, the “apparent KD of MS2 coat protein” value by setting is: (input ligand: FMN 200 uM) 192 nM; (input ligand: none) 75.9 nM.
As for “CAUACUGAAGUUAGGAUAUGCGGCCGAAUACGGAUGUAGAAGGGACAUGAGGAUCACCCAUGUAGAUAGUAAAG [EX-4 Malc #15] (puzzle: Brourd's mod of Exclusion 4)”, the “apparent KD of MS2 coat protein” value under setting [2] is 20.8 nM, the “apparent KD of MS2 coat protein” value under setting [1] was found to be 20.1 nM and the “apparent KD of MS2 coat protein” value under setting [3] came to 20.5 nM.
Consider “CCGGAAAGGAAGGAUAUGCUAGACGAAAGUCUAGCAGAAGGUCCUACAUGAGGAUCACCCAUGUGUCCUCCCGG [Eli x6 4.08] (Eterna round: R97, puzzle: Exclusion 6)”, for which the “apparent KD of MS2 coat protein” value (input ligand: FMN 200 uM) came to 2270 nM and the “apparent KD of MS2 coat protein” value (input ligand: none) was 270 nM.
Consider “GUUUUCAGACGGAGAUCCUACAUGAGGAUCACCCAUGUCUCUCUUGUUAAUUGCUCGUCUUUUCCUCCUCUGUUCUC [Elimod 34 - Jieux - Sensor, turn-off variant 1] (Eterna round: R97, puzzle: Sensor, turn-off variant 1)”, for which the “apparent KD of MS2 coat protein” value (input ligand: FMN 200 uM) came out at 545 nM and the “apparent KD of MS2 coat protein” value (input ligand: none) was 605 nM.
“AGCUGUGGCCGAGGAUAUCUAAUAACUCAAACCGAAAUAUAAUCGGACAUGAGGAUCACCCAUGUAGAGAAGGCGGUCUCAGCA [Eli eng2 - 063] (Eterna round: R96, puzzle: Exclusion NG 2)”: under setting [4], the “apparent KD of MS2 coat protein” value is 69.8 nM.
Take “GACGUGUGAGGAUAUCCGAUGCCGGUCCGGAAGGUUCGGGUGGAGAAGGCACAUGAGGAUCACCCAUGUGUAAG [Excls4-VII] (puzzle: Exclusion 4)”: the “apparent KD of MS2 coat protein” value under setting [1] was 16.4 nM.
“UAAGAUUACCGAGGAUAUGCUGGUUUCUAUUAAGCAGAAGGCGGACUCAACAUGAGGAUCACCCAUGUAAGAAGGGUAUUAGAU [Ex NG1 #9] (Eterna round: R96, puzzle: Exclusion NG 1)”: the “apparent KD of MS2 coat protein” value (input ligand: FMN 200 uM) came to 89.8 nM, the “apparent KD of MS2 coat protein” value under setting [4] was found to be 82.1 nM and the “apparent KD of MS2 coat protein” value (input ligand: none) was determined as 94.8 nM.
Consider “UGUAAGCUAGGAUAUGCUUUGGGAAAGCAUUCCUUCGAUAAACUUGAGGAUCACCCAAGUAGAAGGAGCUUACG [salish99_ex2_r4_007] (Eterna round: R97, puzzle: Exclusion 2)”, for which the “apparent KD of MS2 coat protein” value is, setting by setting: (input ligand: FMN 200 uM) 14.1 nM; (input ligand: none) 12.8 nM.
For “GUCAGCUCGUGAGGAUAUACAUCACUGCUUCGGCAGUGUAUUAAGAUCACAUGAGGAUCACCCAUGUAGAAGGUACGAGCUGAC [ENG2/2-C1] (Eterna round: R96, puzzle: Exclusion NG 2)”, the “apparent KD of MS2 coat protein” value is 180 nM (input ligand: FMN 200 uM), 21.5 nM under setting [4] and 22.1 nM (input ligand: none).
With “UUGUUACAUGAGGAUCACCCAUGUGAGGAUAUGGUUCAGUAAUGUAAUGUAAAGUACUCCAGAAGGCACAUGUU [1st #27] (Eterna round: R97, puzzle: Exclusion 1)”, the “apparent KD of MS2 coat protein” value turned out to be 1510 nM (input ligand: FMN 200 uM) and 809 nM (input ligand: none).
Turning to “CAGGUCCGAGGAUAUAUUAUGUGAAACAUGAGGAUCACCCAUGUUAUAUGAUGGAUGUAAAUAGAAGGCGGACUUG [Mat - Exclusion 5 - JL mod - D64] (puzzle: Exclusion 5)”, the “apparent KD of MS2 coat protein” value stood at 23.9 nM under setting [2], 29.3 nM under setting [1] and 35.3 nM under setting [3].
As for “GUGUCUCGUGUAGGAUAUGCGCGAGGUCUUUGUGCAGAAGGACAUGAGGAUCACCCAUGUAUUCCGCGGCGCGGGCAUGUGUCC [-29/-27 Kcal and A 18%] (Eterna round: R96, puzzle: Exclusion NG 1)”, the “apparent KD of MS2 coat protein” value (input ligand: FMN 200 uM) was found to be 249 nM, the “apparent KD of MS2 coat protein” value under setting [4] was found to be 46.7 nM and the “apparent KD of MS2 coat protein” value (input ligand: none) came out at 52.5 nM.
For “GAAGUAUGAGUUAGGAUAUGAUGAUUUUUAUUAAAUCAGAAGGAACUUGAGGAUCACCCAAGUAAAGAAUUGGU [JR_BMEx4_Sub070] (Eterna round: R97, puzzle: Brourd's mod of Exclusion 4)”, the “apparent KD of MS2 coat protein” value by setting is: (input ligand: FMN 200 uM) 16.1 nM; (input ligand: none) 15.6 nM.
As for “UAUUAGUGAGGAUAUGAGUCGUAGAACAAUAGUACUACGUCUCAGAAGGCACAUGAGGAUCACCCAUGUUCCUU [Fiskers Ex 4 Super Stable 44 mod 35] (puzzle: Exclusion 4)”, the “apparent KD of MS2 coat protein” value under setting [1] came out at 13.6 nM.
As to “GUAUGUUAUGAGGAUAUCGGUGAACAUACACAUCGAGAAGGCAUGACAUGAGGAUCACCCAUGUCAAGGAUGUA [Exclusion 6 - B - 18:b] (puzzle: Exclusion 6)”, the “apparent KD of MS2 coat protein” value was found to be 25.5 nM under setting [2], 15.3 nM under setting [1] and 20.8 nM under setting [3].
Take “CUUUUGUGAGGAUAUCAGUAGUAUAAAAUUAAAAUUACUACUGAGAAGGCACAUGAGGAUCACCCAUGUUCCUC [Mat - Exclusion 4 - Mod of Salish - D75] (puzzle: Exclusion 4)”: the “apparent KD of MS2 coat protein” value under setting [1] amounted to 36 nM.
“UUGGAACGAGGAUAUCGAUGGUGGAACAUGAGGAUCACCCAUGUAUGAGAUAGUGUAGUUCGAGAAGGCGUUAAGU [JR_E5_Sub054] (puzzle: Exclusion 5)”: the “apparent KD of MS2 coat protein” value is 24.1 nM under setting [2], 40.3 nM under setting [1] and 48.9 nM under setting [3].
As for “CUUUACAAGCUAAGAUCCUACAUGAGGAUCACCCAUGUGGUCCGGUGACGUGAGUCACCGGACUUAGCUCGUCUUGG [salish99_S_TOV1_R5_095] (Eterna round: R97, puzzle: Sensor, turn-off variant 1)”, the “apparent KD of MS2 coat protein” value is, setting by setting: (input ligand: FMN 200 uM) 30.1 nM; (input ligand: none) 32.2 nM.
For “GUACUAAAGCUUUGCUUUAGUCGUACAUGAGGAUCACCCAUGUAGGAUAUGGUAAGCAUAGCUUACUAGAAGGAUAGAGUGAUC [Mat - Exclusion NG 3 - Mod of JL - D66] (Eterna round: R96, puzzle: Exclusion NG 3)”, the “apparent KD of MS2 coat protein” value by setting is: (input ligand: FMN 200 uM) 285 nM; under setting [4], 146 nM; (input ligand: none) 145 nM.
Turning to “AGCCAUACAGGAUAUGCCCGGGAUAACAUGAGGAUCACCCAUGUGACCGAUUCAUGUCCUGCAGAAGGGUAUGGGA [Mod of ViennaUCT 3 - Jieux - Exclusion 5] (Eterna round: R97, puzzle: Exclusion 5)”, the “apparent KD of MS2 coat protein” value by setting is: (input ligand: FMN 200 uM) 31.7 nM; (input ligand: none) 16.8 nM.
Take “AAGAAACAUGAGGAUCACCCAUGUGAGGAUAUGAUCAAGAAAAGAAAAGAAAGAAGAUUCAGAAGGCACAAAGG [salish99-ex1_r3_056] (puzzle: Exclusion 1)”: the “apparent KD of MS2 coat protein” value under setting [2] is 124 nM, the “apparent KD of MS2 coat protein” value under setting [1] was found to be 160 nM and the “apparent KD of MS2 coat protein” value under setting [3] came to 362 nM.
